Consider five substances from PMC2603606.

What all share (experiment): crystal structure
Test [1] addresses NITR10 (D50N) V region protein (channel catfish (Ictalurus punctatus)).
For test [2], the target named is NITR10 V region protein (novel immune-type receptor 10, Ig V domain) (channel catfish (Ictalurus punctatus)).
Test [3] deals with NITR11 (N50D) V region protein (channel catfish (Ictalurus punctatus)).
Test [4] addresses NITR11 V domain and membrane proximal stalk region, disulfide-linked homodimer (channel catfish (Ictalurus punctatus)).
Test [5] has as its target NITR11 V region protein (novel immune-type receptor 11, Ig V domain) (channel catfish (Ictalurus punctatus)).

In the case of “NITR10 (D50N) V region protein (domain or fragment)”, the stoichiometry N (usually the number of molecules, sites or subunits per partner or assembly) in test [1] was 2.

Take “NITR10 V region protein (novel immune-type receptor 10, Ig V domain) (domain or fragment)”: in test [2], the stoichiometry N worked out at 2.

In test [3], “NITR11 (N50D) V region protein (domain or fragment)” gave a stoichiometry N of 2.

For the substance “NITR11 V domain and membrane proximal stalk region, disulfide-linked homodimer (domain or fragment)”, in test [4], the stoichiometry N came out at 2.

Take “NITR11 V region protein (novel immune-type receptor 11, Ig V domain) (domain or fragment)”: the stoichiometry N in test [5] worked out at 2.
